Where “and” joins values, the source holds several entries; their conditions need not be identical. Identical values can stand only once.
Legend:
[1] = molecular target: the molecule itself; experiment: two-photon scanning number and brightness (sN&B) fluctuation microscopy; live cultured rat hippocampal neurons, SNAP-tag labelled with Alexa488, with agonist and PAM (10 nM LY379268 + 3 μM BINA) during labelling and imaging; numbers for 90-600 subunits/Veff
[2] = molecular target: the molecule itself; experiment: two-photon scanning number and brightness (sN&B) fluctuation microscopy; live cultured rat hippocampal neurons, SNAP-tag labelled with Alexa488, incubated with 150 μM CuP, bound to antagonist (400 nM LY341495); 90-600 subunits/Veff; apparent stoichiometry (lower with CuP)
[3] = molecular target: the molecule itself; experiment: two-photon scanning number and brightness (sN&B) fluctuation microscopy; live cultured rat hippocampal neurons, SNAP-tag labelled with Alexa488, with antagonist (400 nM LY341495) during labelling and imaging; numbers for 90-600 subunits/Veff
[4] = molecular target: the molecule itself; experiment: two-photon scanning number and brightness (sN&B) fluctuation microscopy; live cultured rat hippocampal neurons, SNAP-tag labelled with Alexa488, incubated with 150 μM CuP for the last 10 min of labelling, imaged in the absence of ligand; 90-600 subunits/Veff; apparent stoichiometry (lower with CuP)
[5] = molecular target: the molecule itself; experiment: two-photon scanning number and brightness (sN&B) fluctuation microscopy; live cultured rat hippocampal neurons, cell-surface SNAP-tagged receptor labelled with Alexa488, imaging buffer pH 7.3, no ligand (basal); numbers for expression of 90-600 subunits/Veff; brightness normalised to monomeric Alexa488

B1: metabotropic glutamate receptor type 2 (mGlu2), wild type, with a SNAP-tag fused to the extracellular N-terminus (HA-ST-mGlu2) (receptor, rat, UniProt P31421 19-872, looked up)
chain: EGPAKKVLTLEGDLVLGGLFPVHQKGGPAEECGPVNEHRGIQRLEAMLFALDRINRDPHLLPGVRLGAHILDSCSKDTHALEQALDFVRASLSRGADGSRHICPDGSYATHSDAPTAVTGVIGGSYSDVSIQVANLLRLFQIPQISYASTSAKLSDKSRYDYFARTVPPDFFQAKAMAEILRFFNWTYVSTVASEGDYGETGIEAFELEARARNICVATSEKVGRAMSRAAFEGVVRALLQKPSARVAVLFTRSEDARELLAATQRLNASFTWVASDGWGALESVVAGSERAAEGAITIELASYPISDFASYFQSLDPWNNSRNPWFREFWEERFHCSFRQRDCAAHSLRAVPFEQESKIMFVVNAVYAMAHALHNMHRALCPNTTHLCDAMRPVNGRRLYKDFVLNVKFDAPFRPADTDDEVRFDRFGDGIGRYNIFTYLRAGSGRYRYQKVGYWAEGLTLDTSFIPWASPSAGPLPASRCSEPCLQNEVKSVQPGEVCCWLCIPCQPYEYRLDEFTCADCGLGYWPNASLTGCFELPQEYIRWGDAWAVGPVTIACLGALATLFVLGVFVRHNATPVVKASGRELCYILLGGVFLCYCMTFVFIAKPSTAVCTLRRLGLGTAFSVCYSALLTKTNRIARIFGGAREGAQRPRFISPASQVAICLALISGQLLIVAAWLVVEAPGTGKETAPERREVVTLRCNHRDASMLGSLAYNVLLIALCTLYAFKTRKCPENFNEAKFIGFTMYTTCIIWLAFLPIFYVTSSDYRVQTTTMCVSVSLSGSVVLGCLFAPKLHIILFQPQKNVVSHRAPTSRFGSAAPRASANLGQGSGSQFVPTVCNGREVVDSTTSSL
modifications: Alexa488 (BG-Alexa488) covalently on the SNAP-tag
notes: metabotropic glutamate receptor 2 (mGlu2), rat, wild type; HA-tag and SNAP-tag inserted just after the signal peptide; pRK5 plasmid, CMV promoter exchanged for the synapsin-1 promoter; also called mGlu2 receptor; wild type receptor; source: cultured rat hippocampal neurons, transfected (Lipofectamine 2000), on live cells; not shown: SNAP-tag, N-terminal, kept
Question: Which results are given for B1?
Answer: stoichiometry N [1]: 4 subunits/complex; stoichiometry N [2]: 3 subunits/complex; stoichiometry N [3]: 3.7 subunits/complex; stoichiometry N [4]: 1.7 subunits/complex; stoichiometry N [5]: 2.2 subunits per complex and 1.66 subunits/complex
